Laboratory results taken from patent publication US6994968.

Molecular target: human Slo1 (human), Q12791
Assay: cell-based or functional assay

Chain of human Slo1 (human), Q12791 (Q12791 whole entry): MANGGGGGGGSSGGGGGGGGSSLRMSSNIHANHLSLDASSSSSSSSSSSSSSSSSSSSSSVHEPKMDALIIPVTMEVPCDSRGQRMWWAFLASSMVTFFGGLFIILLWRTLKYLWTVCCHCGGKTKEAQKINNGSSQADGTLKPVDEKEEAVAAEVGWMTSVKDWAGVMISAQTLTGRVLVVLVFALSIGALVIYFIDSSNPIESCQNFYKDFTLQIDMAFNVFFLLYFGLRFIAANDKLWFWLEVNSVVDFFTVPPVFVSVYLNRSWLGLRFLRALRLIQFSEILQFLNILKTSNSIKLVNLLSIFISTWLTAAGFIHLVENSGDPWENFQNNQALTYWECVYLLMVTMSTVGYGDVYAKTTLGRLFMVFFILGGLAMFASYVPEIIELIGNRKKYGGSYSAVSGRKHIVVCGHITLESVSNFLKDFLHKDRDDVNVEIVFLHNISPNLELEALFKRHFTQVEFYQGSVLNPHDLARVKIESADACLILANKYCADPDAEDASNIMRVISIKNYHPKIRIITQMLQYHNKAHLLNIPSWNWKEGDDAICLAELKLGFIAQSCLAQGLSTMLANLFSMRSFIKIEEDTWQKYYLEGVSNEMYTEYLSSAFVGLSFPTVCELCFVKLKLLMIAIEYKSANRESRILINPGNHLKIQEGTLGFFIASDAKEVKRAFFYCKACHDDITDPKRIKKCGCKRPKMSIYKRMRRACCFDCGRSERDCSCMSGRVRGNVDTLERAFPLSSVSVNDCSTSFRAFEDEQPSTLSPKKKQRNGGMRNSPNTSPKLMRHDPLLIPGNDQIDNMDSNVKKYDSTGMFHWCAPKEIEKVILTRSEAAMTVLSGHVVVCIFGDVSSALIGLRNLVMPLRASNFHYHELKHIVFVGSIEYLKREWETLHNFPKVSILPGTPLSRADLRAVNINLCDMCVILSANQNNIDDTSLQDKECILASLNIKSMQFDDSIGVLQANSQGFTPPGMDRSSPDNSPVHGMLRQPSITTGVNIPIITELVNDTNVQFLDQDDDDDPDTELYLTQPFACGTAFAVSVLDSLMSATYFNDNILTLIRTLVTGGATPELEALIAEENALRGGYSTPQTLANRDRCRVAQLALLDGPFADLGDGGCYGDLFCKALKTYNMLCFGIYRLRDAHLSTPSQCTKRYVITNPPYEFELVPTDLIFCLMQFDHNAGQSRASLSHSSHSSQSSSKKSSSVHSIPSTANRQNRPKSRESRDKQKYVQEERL

B1: human BK beta 3, Q86W47 1-210 (protein)
chain: MAKLRVAYEYTEAEDKSIRLGLFLIISGVVSLFIFGFCWLSPALQDLQATEANCTVLSVQQIGEVFECTFTCGADCRGTSQYPCVQVYVNNSESNSRALLHSDEHQLLTNPKCSYIPPCKRENQKNLESVMNWQQYWKDEIGSQPFTCYFNQHQRPDDVLLHRTHDEIVLLHCFLWPLVTFVVGVLIVVLTICAKSLAVKAEAMKKRKFS
Binder B1 has a leftward shift in the Slo-1 activation curve (V1/2act) in the presence of 50 µM free Ca2+ of 15 mV.
